This passage reports Ki results from patent US20260015399A1 (Boehringer Ingelheim, published 2026).

*1 amine or outer side, *2 acyl side, *3 side chain or, on linkers, in order; H or OH if unused. Side-chain parts run from the residue outwards. The star is where a group is joined. C18 diacid = O=C(O)CCCCCCCCCCCCCCCCC(=O)*; γGlu = O=C(O)[C@H](CCC(=O)[*:2])N[*:1]; Isovaleryl = CC(C)CC(=O)*; Ahx = NCCCCCC(=O)O

First the molecules themselves.
T1: human NPY2 receptor (human, UniProt P49146 1-381)
T1 construct: whole, on cells; also called hNPY2-R; hNPY2R
T1 sequence (looked up): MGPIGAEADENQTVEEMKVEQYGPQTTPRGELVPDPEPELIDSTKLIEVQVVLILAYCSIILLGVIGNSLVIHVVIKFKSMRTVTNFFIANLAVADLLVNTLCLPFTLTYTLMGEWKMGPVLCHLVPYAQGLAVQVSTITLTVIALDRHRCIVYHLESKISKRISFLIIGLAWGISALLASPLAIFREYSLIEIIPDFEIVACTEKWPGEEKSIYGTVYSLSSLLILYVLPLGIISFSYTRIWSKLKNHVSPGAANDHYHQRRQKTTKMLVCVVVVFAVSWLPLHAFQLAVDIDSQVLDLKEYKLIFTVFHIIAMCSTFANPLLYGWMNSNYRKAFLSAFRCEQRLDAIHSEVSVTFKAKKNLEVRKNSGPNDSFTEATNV

B1: Compound 169 (peptide)
peptide: Isovaleryl-APEK([Ahx-γGlu-C18 diacid])PEEDAEPEELQAYYVSLRHYYNWLTRQRY-NH2
SMILES: CC(C)CC(=O)N[C@@H](C)C(=O)N1CCC[C@H]1C(=O)N[C@@H](CCC(=O)O)C(=O)N[C@@H](CCCCNC(=O)CCCCCNC(=O)CC[C@H](NC(=O)CCCCCCCCCCCCCCCCC(=O)O)C(=O)O)C(=O)N1CCC[C@H]1C(=O)N[C@@H](CCC(=O)O)C(=O)N[C@@H](CCC(=O)O)C(=O)N[C@@H](CC(=O)O)C(=O)N[C@@H](C)C(=O)N[C@@H](CCC(=O)O)C(=O)N1CCC[C@H]1C(=O)N[C@@H](CCC(=O)O)C(=O)N[C@@H](CCC(=O)O)C(=O)N[C@@H](CC(C)C)C(=O)N[C@@H](CCC(N)=O)C(=O)N[C@@H](C)C(=O)N[C@@H](Cc1ccc(O)cc1)C(=O)N[C@@H](Cc1ccc(O)cc1)C(=O)N[C@H](C(=O)N[C@@H](CO)C(=O)N[C@@H](CC(C)C)C(=O)N[C@@H](CCCNC(=N)N)C(=O)N[C@@H](Cc1c[nH]cn1)C(=O)N[C@@H](Cc1ccc(O)cc1)C(=O)N[C@@H](Cc1ccc(O)cc1)C(=O)N[C@@H](CC(N)=O)C(=O)N[C@@H](Cc1c[nH]c2ccccc12)C(=O)N[C@@H](CC(C)C)C(=O)N[C@H](C(=O)N[C@@H](CCCNC(=N)N)C(=O)N[C@@H](CCC(N)=O)C(=O)N[C@@H](CCCNC(=N)N)C(=O)N[C@@H](Cc1ccc(O)cc1)C(N)=O)[C@@H](C)O)C(C)C
B2: Compound 179 (peptide)
peptide: Isovaleryl-APEK([Ahx-γGlu-C18 diacid])PEADASPEETQRYYVALRHYYNWLTRQRY-NH2
SMILES: CC(C)CC(=O)N[C@@H](C)C(=O)N1CCC[C@H]1C(=O)N[C@@H](CCC(=O)O)C(=O)N[C@@H](CCCCNC(=O)CCCCCNC(=O)CC[C@H](NC(=O)CCCCCCCCCCCCCCCCC(=O)O)C(=O)O)C(=O)N1CCC[C@H]1C(=O)N[C@@H](CCC(=O)O)C(=O)N[C@@H](C)C(=O)N[C@@H](CC(=O)O)C(=O)N[C@@H](C)C(=O)N[C@@H](CO)C(=O)N1CCC[C@H]1C(=O)N[C@@H](CCC(=O)O)C(=O)N[C@@H](CCC(=O)O)C(=O)N[C@H](C(=O)N[C@@H](CCC(N)=O)C(=O)N[C@@H](CCCNC(=N)N)C(=O)N[C@@H](Cc1ccc(O)cc1)C(=O)N[C@@H](Cc1ccc(O)cc1)C(=O)N[C@H](C(=O)N[C@@H](C)C(=O)N[C@@H](CC(C)C)C(=O)N[C@@H](CCCNC(=N)N)C(=O)N[C@@H](Cc1c[nH]cn1)C(=O)N[C@@H](Cc1ccc(O)cc1)C(=O)N[C@@H](Cc1ccc(O)cc1)C(=O)N[C@@H](CC(N)=O)C(=O)N[C@@H](Cc1c[nH]c2ccccc12)C(=O)N[C@@H](CC(C)C)C(=O)N[C@H](C(=O)N[C@@H](CCCNC(=N)N)C(=O)N[C@@H](CCC(N)=O)C(=O)N[C@@H](CCCNC(=N)N)C(=O)N[C@@H](Cc1ccc(O)cc1)C(N)=O)[C@@H](C)O)C(C)C)[C@@H](C)O
B3: Compound 171 (peptide)
peptide: Isovaleryl-APEK([Ahx-γGlu-C18 diacid])PEADASPEELQRYYVELRHYYNWLTRQRY-NH2
SMILES: CC(C)CC(=O)N[C@@H](C)C(=O)N1CCC[C@H]1C(=O)N[C@@H](CCC(=O)O)C(=O)N[C@@H](CCCCNC(=O)CCCCCNC(=O)CC[C@H](NC(=O)CCCCCCCCCCCCCCCCC(=O)O)C(=O)O)C(=O)N1CCC[C@H]1C(=O)N[C@@H](CCC(=O)O)C(=O)N[C@@H](C)C(=O)N[C@@H](CC(=O)O)C(=O)N[C@@H](C)C(=O)N[C@@H](CO)C(=O)N1CCC[C@H]1C(=O)N[C@@H](CCC(=O)O)C(=O)N[C@@H](CCC(=O)O)C(=O)N[C@@H](CC(C)C)C(=O)N[C@@H](CCC(N)=O)C(=O)N[C@@H](CCCNC(=N)N)C(=O)N[C@@H](Cc1ccc(O)cc1)C(=O)N[C@@H](Cc1ccc(O)cc1)C(=O)N[C@H](C(=O)N[C@@H](CCC(=O)O)C(=O)N[C@@H](CC(C)C)C(=O)N[C@@H](CCCNC(=N)N)C(=O)N[C@@H](Cc1c[nH]cn1)C(=O)N[C@@H](Cc1ccc(O)cc1)C(=O)N[C@@H](Cc1ccc(O)cc1)C(=O)N[C@@H](CC(N)=O)C(=O)N[C@@H](Cc1c[nH]c2ccccc12)C(=O)N[C@@H](CC(C)C)C(=O)N[C@H](C(=O)N[C@@H](CCCNC(=N)N)C(=O)N[C@@H](CCC(N)=O)C(=O)N[C@@H](CCCNC(=N)N)C(=O)N[C@@H](Cc1ccc(O)cc1)C(N)=O)[C@@H](C)O)C(C)C
B4: Compound 178 (peptide)
peptide: Isovaleryl-APEK([Ahx-γGlu-C18 diacid])PEAAATPEEIQRYYVALRHYYNWLTRQRY-NH2
SMILES: CC[C@H](C)[C@H](NC(=O)[C@H](CCC(=O)O)NC(=O)[C@H](CCC(=O)O)NC(=O)[C@@H]1CCCN1C(=O)[C@@H](NC(=O)[C@H](C)NC(=O)[C@H](C)NC(=O)[C@H](C)NC(=O)[C@H](CCC(=O)O)NC(=O)[C@@H]1CCCN1C(=O)[C@H](CCCCNC(=O)CCCCCNC(=O)CC[C@H](NC(=O)CCCCCCCCCCCCCCCCC(=O)O)C(=O)O)NC(=O)[C@H](CCC(=O)O)NC(=O)[C@@H]1CCCN1C(=O)[C@H](C)NC(=O)CC(C)C)[C@@H](C)O)C(=O)N[C@@H](CCC(N)=O)C(=O)N[C@@H](CCCNC(=N)N)C(=O)N[C@@H](Cc1ccc(O)cc1)C(=O)N[C@@H](Cc1ccc(O)cc1)C(=O)N[C@H](C(=O)N[C@@H](C)C(=O)N[C@@H](CC(C)C)C(=O)N[C@@H](CCCNC(=N)N)C(=O)N[C@@H](Cc1c[nH]cn1)C(=O)N[C@@H](Cc1ccc(O)cc1)C(=O)N[C@@H](Cc1ccc(O)cc1)C(=O)N[C@@H](CC(N)=O)C(=O)N[C@@H](Cc1c[nH]c2ccccc12)C(=O)N[C@@H](CC(C)C)C(=O)N[C@H](C(=O)N[C@@H](CCCNC(=N)N)C(=O)N[C@@H](CCC(N)=O)C(=O)N[C@@H](CCCNC(=N)N)C(=O)N[C@@H](Cc1ccc(O)cc1)C(N)=O)[C@@H](C)O)C(C)C
B5: Compound 177 (peptide)
peptide: Isovaleryl-APEK([Ahx-γGlu-C18 diacid])PEEDATPEELQQYYVSLRHYYNWLTRQRY-NH2
SMILES: CC(C)CC(=O)N[C@@H](C)C(=O)N1CCC[C@H]1C(=O)N[C@@H](CCC(=O)O)C(=O)N[C@@H](CCCCNC(=O)CCCCCNC(=O)CC[C@H](NC(=O)CCCCCCCCCCCCCCCCC(=O)O)C(=O)O)C(=O)N1CCC[C@H]1C(=O)N[C@@H](CCC(=O)O)C(=O)N[C@@H](CCC(=O)O)C(=O)N[C@@H](CC(=O)O)C(=O)N[C@@H](C)C(=O)N[C@H](C(=O)N1CCC[C@H]1C(=O)N[C@@H](CCC(=O)O)C(=O)N[C@@H](CCC(=O)O)C(=O)N[C@@H](CC(C)C)C(=O)N[C@@H](CCC(N)=O)C(=O)N[C@@H](CCC(N)=O)C(=O)N[C@@H](Cc1ccc(O)cc1)C(=O)N[C@@H](Cc1ccc(O)cc1)C(=O)N[C@H](C(=O)N[C@@H](CO)C(=O)N[C@@H](CC(C)C)C(=O)N[C@@H](CCCNC(=N)N)C(=O)N[C@@H](Cc1c[nH]cn1)C(=O)N[C@@H](Cc1ccc(O)cc1)C(=O)N[C@@H](Cc1ccc(O)cc1)C(=O)N[C@@H](CC(N)=O)C(=O)N[C@@H](Cc1c[nH]c2ccccc12)C(=O)N[C@@H](CC(C)C)C(=O)N[C@H](C(=O)N[C@@H](CCCNC(=N)N)C(=O)N[C@@H](CCC(N)=O)C(=O)N[C@@H](CCCNC(=N)N)C(=O)N[C@@H](Cc1ccc(O)cc1)C(N)=O)[C@@H](C)O)C(C)C)[C@@H](C)O
B6: Compound 170 (peptide)
peptide: Isovaleryl-APEK([Ahx-γGlu-C18 diacid])PEEDAAPEEIQRYYVSLRHYYNWLTRQRY-NH2
SMILES: CC[C@H](C)[C@H](NC(=O)[C@H](CCC(=O)O)NC(=O)[C@H](CCC(=O)O)NC(=O)[C@@H]1CCCN1C(=O)[C@H](C)NC(=O)[C@H](C)NC(=O)[C@H](CC(=O)O)NC(=O)[C@H](CCC(=O)O)NC(=O)[C@H](CCC(=O)O)NC(=O)[C@@H]1CCCN1C(=O)[C@H](CCCCNC(=O)CCCCCNC(=O)CC[C@H](NC(=O)CCCCCCCCCCCCCCCCC(=O)O)C(=O)O)NC(=O)[C@H](CCC(=O)O)NC(=O)[C@@H]1CCCN1C(=O)[C@H](C)NC(=O)CC(C)C)C(=O)N[C@@H](CCC(N)=O)C(=O)N[C@@H](CCCNC(=N)N)C(=O)N[C@@H](Cc1ccc(O)cc1)C(=O)N[C@@H](Cc1ccc(O)cc1)C(=O)N[C@H](C(=O)N[C@@H](CO)C(=O)N[C@@H](CC(C)C)C(=O)N[C@@H](CCCNC(=N)N)C(=O)N[C@@H](Cc1c[nH]cn1)C(=O)N[C@@H](Cc1ccc(O)cc1)C(=O)N[C@@H](Cc1ccc(O)cc1)C(=O)N[C@@H](CC(N)=O)C(=O)N[C@@H](Cc1c[nH]c2ccccc12)C(=O)N[C@@H](CC(C)C)C(=O)N[C@H](C(=O)N[C@@H](CCCNC(=N)N)C(=O)N[C@@H](CCC(N)=O)C(=O)N[C@@H](CCCNC(=N)N)C(=O)N[C@@H](Cc1ccc(O)cc1)C(N)=O)[C@@H](C)O)C(C)C

This assay has as its target T1, human NPY2 receptor. As to the kind of experiment: RLB: displacement of 125I-PYY(1-36) from hNPY2R membranes. (In general: Displacement assays read how much labelled ligand stays bound in the presence of the test substance.)
In general, Ki refers to a measure of affinity in units of concentration, obtained from inhibition or displacement. Read a high Ki as a looser hold on the target. For the molecule B1, the affinity corresponds to a Ki of 5.82 nM. In turn, B2 displayed a Ki of 0.89 nM. As for B3, affinity was put at a Ki of 2.83 nM. The figure for B4 is 3.39 nM; for B5 it is 8.65 nM; for B6 it is 2.28 nM.
